In patent publication CN1803842A (UNIV NANJING MEDICAL, dated 2006):

Experiments:
Aβ1-42 = biological target: T1, Aβ1-42 (UniProt P05067 672-713); test: Western blot, 20 μg Aβ1-42 per lane on PVDF, purified scFv 1:5, detection with anti-c-myc antibody and HRP goat anti-mouse IgG
T1 construct: domain: Aβ1-42; Sample loaded on the Tricine SDS-PAGE gel for the Western blot (20 μg per lane); also called Aβ 42; 合成的Aβ多肽

BSA = biological target: T2, BSA (UniProt P02769 25-607); test: Western blot, 20 μg BSA per lane, purified scFv 1:5, detection with anti-c-myc antibody
T2 construct: Control protein in the Western blot

- binding result (Aβ1-42): binds
- binding result (BSA): no binding
B1: E3单链抗体 (抗Aβ可溶性单链抗体) (scFv)
scFv: QVQLQESGPGLVKPSETLSLTCAVSGYSISSGYYWGWIRQPPGKGLEWIGSIYHSGSTYYNPSLKSRVTISVDTSKNQFSLKLSSVTAADTAVYYCARDLGSSVSWGQGTLVTVSSGGGGSGGGGSGGSALDIQMTQSPSSLSASVGDRVTISCRMSQGISNYLAWYQQKPGKVPKLLIYAASTLQSGVPSRFSGSGSGTDFTLTISSLQPEDVATYYCQKYNSALVTFGQGTKLEIKR
notes: Soluble scFv expressed in E. coli HB2151, purified on His-Trap, about 31 kD; also called E3scFv; E3 scFv; not shown: C-terminal tags of the pHEN2 vector, implied by His-Trap purification and detect
